# Assay results: paper PMC4899871 (2016)
# B1: GST-HA-ATG16L1-320–607 (recombinant WD40 domain fused to GST and the HA tag) [human] / TMEM59 263–281 peptide, wild type (19-amino acid peptide that includes the ATG16L1-binding motif) [modified: Immobilised through the N-terminus by a … (parent complex)
# chain 1: AHDGEVNAVQFSPGSRLLATGGMDRRVKLWEVFGEKCEFKGSLSGSNAGITSIEFDSAGSYLLAASNDFASRIWTVDDYRLRHTLTGHSGKVLSAKFLLDNARIVSGSHDRTLKLWDLRSKVCIKTVFAGSSCNDIVCTEQCVMSGHFDKKIRFWDIRSESIVREMELLGKITALDLNPERTELLSCSRDDLLKVIDLRTNAIKQTFSAPGFKCGSDWTRVVFSPDGSYVAAGSAEGSLYIWSVLTGKVEKVLSKQHSSSINAVAWSPSGSHVVSVDKGCKAVLWAQY
# chain 2: TAVEQYVPSEKLSIYGDLE
# B2: GST-HA-ATG16L1-231–607 T300, purified from human cells [human] / TMEM59 263–281 peptide, wild type (19-amino acid peptide that includes the ATG16L1-binding motif) [modified: Immobilised through the N-terminus by a long spacer (Tds). Some … (parent complex)
# chain 1: PLPVEQDDDIEVIVDETSDHTEETSPVRAISRAATKRLSQPAGGLLDSITNIFGRRSVSSFPVPQDNVDTHPGSGKEVRVPATALCVFDAHDGEVNAVQFSPGSRLLATGGMDRRVKLWEVFGEKCEFKGSLSGSNAGITSIEFDSAGSYLLAASNDFASRIWTVDDYRLRHTLTGHSGKVLSAKFLLDNARIVSGSHDRTLKLWDLRSKVCIKTVFAGSSCNDIVCTEQCVMSGHFDKKIRFWDIRSESIVREMELLGKITALDLNPERTELLSCSRDDLLKVIDLRTNAIKQTFSAPGFKCGSDWTRVVFSPDGSYVAAGSAEGSLYIWSVLTGKVEKVLSKQHSSSINAVAWSPSGSHVVSVDKGCKAVLWAQY
# chain 2: TAVEQYVPSEKLSIYGDLE
# Variants of: B1
# Assay: peptide microarray; probe expressed in bacteria; mean ± s.d., n=9 replicas; parent: 100; read off a plot
row,Variant,percent of parent
1,"chain 2 Y6A, chain 2 E10A, chain 2 Y15A, chain 2 L18A","~2.5 % of WT peptide (OD635, normalized values)"

# Variants of: B2
# Assay: peptide microarray; probe purified from human cells; mean ± s.d., n=9 replicas; parent: 100; read off a plot
row,Variant,percent of parent
1,chain 2 V7A,"~140 % of WT peptide (OD635, normalized values)"
2,chain 2 L18A,"~19 % of WT peptide (OD635, normalized values)"
3,chain 2 Y6A,"~45 % of WT peptide (OD635, normalized values)"
4,"chain 2 Y6A, chain 2 E10A, chain 2 Y15A, chain 2 L18A","~3 % of WT peptide (OD635, normalized values)"
5,chain 2 Y15A,"~10 % of WT peptide (OD635, normalized values)"
6,chain 2 G16A,"~160 % of WT peptide (OD635, normalized values)"
7,chain 2 K11A,"~96 % of WT peptide (OD635, normalized values)"
8,chain 2 E10A,"~130 % of WT peptide (OD635, normalized values)"

# Variants of: B2
# Assay: peptide microarray; probes purified from human cells; mean ± s.d., n=54; values normalised to the A300 ligand (= 100); parent: 160; read off a plot
row,Variant,response
1,chain 1 T70A,"~100 OD635, normalized values (% of the A300 ligand signal)"

# Variants of: B2
# Assay: peptide microarray; probe purified from human cells; mean ± s.d., n=9 replicas; parent: 9.3e+03; read off a plot
row,Variant,response
1,"chain 2 Y6A, chain 2 E10A, chain 2 Y15A, chain 2 L18A",~400 a.u. (OD635)
